Three substances from patent US20220356245A1 can be followed below.

In assay [1] the target is human CD47 (hCD47) expressed on cells (human) (UniProt Q08722). Nature of the assay: flow cytometry, Raji cells, competition with His-hSIRPα. On the technique in general: Flow cytometry measures light scatter and fluorescence of single cells or particles in a stream.
Assay [2] addresses hu-sCD47-6His; extracellular domain of human CD47 antigen with 6His-tag (human). Nature of the assay: SPR Biacore. On the technique in general: SPR reads the build-up and loss of mass on a sensor chip optically.
For assay [3] the target is unchanged. The assay can be described thus: ELISA, coated glycosylated hCD47-His.
The target of assay [4] is N-deglycosylated soluble hCD47-His (PNGase treated) (human). The assay can be described thus: ELISA, coated N-deglycosylated hCD47-His. (An ELISA detects its analyte on a solid surface through an enzyme-linked reagent.)
Assay [5] has as its target hu-sCD47-6His; extracellular domain of human CD47 antigen with 6His-tag (human). Nature of the assay: ELISA, one-site binding saturation fit, glycosylated hCD47.
Assay [6] deals with N-deglycosylated soluble hCD47-His (PNGase treated) (human). Nature of the assay: ELISA, one-site binding saturation fit, deglycosylated hCD47.
The target of assay [7] is human CD47 (hCD47) expressed on cells (human) (UniProt Q08722). Nature of the assay: flow cytometry, Raji cells.

Sequence of humanized 5F9 (hu5F9; vh2-vl2) (antibody) (VH): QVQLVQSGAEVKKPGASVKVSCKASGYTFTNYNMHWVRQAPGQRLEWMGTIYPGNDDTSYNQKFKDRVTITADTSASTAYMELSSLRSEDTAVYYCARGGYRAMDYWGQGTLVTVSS
Sequence of humanized 5F9 (hu5F9; vh2-vl2) (antibody) (VL): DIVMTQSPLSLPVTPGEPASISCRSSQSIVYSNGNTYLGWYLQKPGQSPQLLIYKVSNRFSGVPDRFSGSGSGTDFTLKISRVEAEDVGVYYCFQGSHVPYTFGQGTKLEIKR
Sequence of B6H12 (mouse IgG1, Abcam) (antibody) (VH): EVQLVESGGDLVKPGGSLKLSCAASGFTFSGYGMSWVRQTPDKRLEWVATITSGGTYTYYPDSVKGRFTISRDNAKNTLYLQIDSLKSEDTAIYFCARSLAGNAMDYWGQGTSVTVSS
Sequence of B6H12 (mouse IgG1, Abcam) (antibody) (VL): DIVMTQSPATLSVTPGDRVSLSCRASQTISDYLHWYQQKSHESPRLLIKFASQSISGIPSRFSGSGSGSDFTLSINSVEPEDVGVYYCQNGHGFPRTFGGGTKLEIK

By IC50 is commonly meant the concentration that gives 50% inhibition. A higher IC50 goes with weaker potency in that assay. In turn, chimeric 5F9 (c5F9) (antibody) came in with an IC50 in assay [1] of 0.209 µg/mL.

For orientation: Kd means the concentration at which binding is half-saturated. The low end stands for tighter binding, the high end for weaker binding. For orientation: EC50 means the concentration at which the effect is half-maximal. A higher EC50 goes with weaker potency. By EC95 is commonly meant the concentration at which the effect reaches the 95% level. A high value points to weaker potency. “humanized 5F9 (hu5F9; vh2-vl2) (antibody)”: the dissociation constant Kd in assay [2] came out at 0.73 nM. In assay [3], the EC50 was found to be 0.0547 nM and the EC95 is 1960 pM. Also, in assay [4], the EC50 was 0.254 nM and the EC95 worked out at 54 nM. In assay [5], this substance displayed a Bmax of 2.66 OD value and an equilibrium binding constant of 49 pM. Moreover, in assay [6], the Bmax2 is 1.4 OD value and the equilibrium binding constant was 129 pM.

As to B6H12 (mouse IgG1, Abcam) (antibody), the EC50 in assay [7] came to 2.93 µg/mL.
